Experimental data as given in PMC5546038.

Assays:
Test in all cases: ELISA
[1] = target: C1q; conditions: Ab 20 µg/ml (highest point of the titration); parent: est. 1.7; read off a plot
[2] = target: human FcγRI (UniProt P12314); conditions: Fc 20 µg/ml (highest point of the titration); parent: est. 2.1; read off a plot
[3] = target: human FcγRIIA (UniProt P12318); conditions: Fc 20 µg/ml (highest point of the titration); parent: est. 0.53; read off a plot
[4] = target: human FcγRIIB (UniProt P31994); conditions: Fc 20 µg/ml (highest point of the titration); parent: est. 0.20; read off a plot
Sequence of human FcγRIIB (P31994 43-217): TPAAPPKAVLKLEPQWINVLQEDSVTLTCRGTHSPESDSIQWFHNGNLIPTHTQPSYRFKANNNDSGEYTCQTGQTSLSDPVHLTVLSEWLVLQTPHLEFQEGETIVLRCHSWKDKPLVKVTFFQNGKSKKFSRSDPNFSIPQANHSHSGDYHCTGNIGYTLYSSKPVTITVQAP

[5] = target: human FcγRIIIA (UniProt P08637); conditions: Fc 20 µg/ml (highest point of the titration); parent: est. 0.99; read off a plot
Sequence of human FcγRIIIA (P08637 17-208): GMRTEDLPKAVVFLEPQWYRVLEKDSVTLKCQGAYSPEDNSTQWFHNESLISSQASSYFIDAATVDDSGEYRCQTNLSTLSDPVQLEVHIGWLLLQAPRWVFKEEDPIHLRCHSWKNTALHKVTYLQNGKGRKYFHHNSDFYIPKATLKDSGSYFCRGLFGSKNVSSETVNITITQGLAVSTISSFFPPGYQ

[6] = target: human FcγRIIIB (UniProt O75015); conditions: Fc 20 µg/ml (highest point of the titration); parent: est. 0.19; read off a plot
Sequence of human FcγRIIIB (O75015 17-200): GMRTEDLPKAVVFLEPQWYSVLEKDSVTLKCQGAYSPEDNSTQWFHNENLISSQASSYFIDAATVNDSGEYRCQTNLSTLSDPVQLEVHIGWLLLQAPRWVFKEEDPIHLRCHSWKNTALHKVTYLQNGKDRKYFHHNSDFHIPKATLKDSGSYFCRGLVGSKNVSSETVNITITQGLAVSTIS

[7] = target: human Siglec-1 (UniProt Q9BZZ2); conditions: Fc 50 µg/ml (highest point of the titration); parent: est. 1.2; read off a plot
Sequence of human Siglec-1 (Q9BZZ2 20-1641): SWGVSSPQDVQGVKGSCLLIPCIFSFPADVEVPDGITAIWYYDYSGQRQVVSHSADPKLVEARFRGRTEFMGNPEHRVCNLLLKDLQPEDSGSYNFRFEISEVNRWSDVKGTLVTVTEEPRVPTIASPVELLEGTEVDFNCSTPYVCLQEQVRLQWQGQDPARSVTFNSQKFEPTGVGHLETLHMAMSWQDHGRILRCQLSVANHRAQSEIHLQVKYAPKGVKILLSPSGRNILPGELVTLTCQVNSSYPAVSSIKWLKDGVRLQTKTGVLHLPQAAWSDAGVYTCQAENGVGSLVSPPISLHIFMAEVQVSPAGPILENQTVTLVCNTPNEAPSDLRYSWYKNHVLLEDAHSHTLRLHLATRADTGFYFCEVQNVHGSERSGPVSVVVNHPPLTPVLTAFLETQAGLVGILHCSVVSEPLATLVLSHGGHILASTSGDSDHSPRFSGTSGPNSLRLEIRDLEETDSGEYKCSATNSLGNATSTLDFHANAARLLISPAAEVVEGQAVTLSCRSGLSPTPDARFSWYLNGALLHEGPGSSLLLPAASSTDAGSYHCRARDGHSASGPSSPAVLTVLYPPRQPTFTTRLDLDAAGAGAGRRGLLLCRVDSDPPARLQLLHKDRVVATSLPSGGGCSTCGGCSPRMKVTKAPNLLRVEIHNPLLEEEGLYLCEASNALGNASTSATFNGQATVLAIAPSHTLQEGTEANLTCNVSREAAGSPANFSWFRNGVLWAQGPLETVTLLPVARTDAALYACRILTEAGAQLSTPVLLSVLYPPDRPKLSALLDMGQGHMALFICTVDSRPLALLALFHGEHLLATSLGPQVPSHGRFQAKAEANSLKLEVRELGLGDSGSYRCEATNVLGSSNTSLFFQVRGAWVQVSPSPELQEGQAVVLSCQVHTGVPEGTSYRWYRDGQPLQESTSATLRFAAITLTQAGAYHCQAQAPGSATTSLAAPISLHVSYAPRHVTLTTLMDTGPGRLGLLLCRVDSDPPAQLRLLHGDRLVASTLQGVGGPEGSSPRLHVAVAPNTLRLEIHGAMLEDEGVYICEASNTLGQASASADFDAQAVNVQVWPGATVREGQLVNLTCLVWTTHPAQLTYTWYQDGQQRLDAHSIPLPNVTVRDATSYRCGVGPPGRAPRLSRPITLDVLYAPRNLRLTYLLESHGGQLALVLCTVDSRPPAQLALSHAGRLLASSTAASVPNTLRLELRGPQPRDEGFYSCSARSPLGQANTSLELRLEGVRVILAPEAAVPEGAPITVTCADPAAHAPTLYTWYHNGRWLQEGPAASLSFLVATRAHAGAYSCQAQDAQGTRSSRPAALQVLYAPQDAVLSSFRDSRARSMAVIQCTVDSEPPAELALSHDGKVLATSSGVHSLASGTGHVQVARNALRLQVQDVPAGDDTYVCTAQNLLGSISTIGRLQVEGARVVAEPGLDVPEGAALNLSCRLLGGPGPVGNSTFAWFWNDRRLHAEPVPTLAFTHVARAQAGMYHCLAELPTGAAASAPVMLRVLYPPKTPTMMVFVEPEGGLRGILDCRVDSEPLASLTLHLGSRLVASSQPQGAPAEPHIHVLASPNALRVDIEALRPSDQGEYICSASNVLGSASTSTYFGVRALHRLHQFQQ

[8] = target: soluble recombinant tetrameric human DC-SIGN (UniProt Q9NNX6); conditions: Fc 20 µg/ml (highest point of the titration); parent: est. 0.98; read off a plot

Sequence of human FcγRI (P12314 16-292): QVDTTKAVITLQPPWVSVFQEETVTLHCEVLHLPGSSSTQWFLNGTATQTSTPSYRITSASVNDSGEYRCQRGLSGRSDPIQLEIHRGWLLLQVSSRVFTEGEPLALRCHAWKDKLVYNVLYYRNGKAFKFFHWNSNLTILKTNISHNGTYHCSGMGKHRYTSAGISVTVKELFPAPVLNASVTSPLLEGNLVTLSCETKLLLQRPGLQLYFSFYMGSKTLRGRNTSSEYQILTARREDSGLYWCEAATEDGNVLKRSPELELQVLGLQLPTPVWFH
Sequence of human FcγRIIA (P12318 34-217): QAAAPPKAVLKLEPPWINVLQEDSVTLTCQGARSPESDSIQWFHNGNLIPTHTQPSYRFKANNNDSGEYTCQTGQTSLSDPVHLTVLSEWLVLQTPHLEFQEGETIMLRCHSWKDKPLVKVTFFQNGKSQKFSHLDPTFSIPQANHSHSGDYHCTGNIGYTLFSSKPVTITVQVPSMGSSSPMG

Row | Substance | response [1] [OD 405nm] | response [2] [OD 405nm] | response [3] [OD 405nm] | response [4] [OD 405nm] | response [5] [OD 405nm] | response [6] [OD 405nm] | response [7] [OD 405nm] | response [8] [OD 405nm]
1 | hexa-Fc (human IgG1-Fc with L309C/H310L and the 18-amino acid IgM tail piece) D221N; N563A | 2.2 | 2 | 0.33 | 0.12 | 1.6 | 0.1 | 1.6 | 0.57
2 | hexa-Fc (human IgG1-Fc with L309C/H310L and the 18-amino acid IgM tail piece) N563A | 2.3 | – | – | – | – | – | – | 0.84
3 | hexa-Fc (human IgG1-Fc with L309C/H310L and the 18-amino acid IgM tail piece) D221N | 1.8 | 0.24 | 0.12 | 0.08 | 0.09 | 0.073 | 1.2 | 0.64
4 | hexa-Fc (human IgG1-Fc with L309C/H310L and the 18-amino acid IgM tail piece) N297A | 0.9 | 0.065 | 0.065 | 0.069 | 0.07 | 0.073 | – | 0.28
5 | hexa-Fc (human IgG1-Fc with L309C/H310L and the 18-amino acid IgM tail piece) D221N; N297A | 0.93 | 0.065 | 0.065 | 0.069 | 0.07 | 0.073 | 0.96 | 0.33
6 | hexa-Fc (human IgG1-Fc with L309C/H310L and the 18-amino acid IgM tail piece) D221N; N297A; N563A | 0.9 | – | – | – | – | – | 1.7 | 0.37
7 | hexa-Fc (human IgG1-Fc with L309C/H310L and the 18-amino acid IgM tail piece) N297A; N563A | 0.97 | – | – | – | – | – | 0.15 | 0.27
